Test results as given in patent US20230137562A1, “TAU AGGREGATION INHIBITORS” (priority 2017, published 2023).
Several values for one entry are separate records, joined by “and”; a condition that tells them apart may be missing. Identical values can stand only once. Square brackets hold non-standard residues; d marks the D form. Ends that are not written are not given here. hArg = N=C(N)NCCCC[C@H](N)C(=O)O

T1: Ac-VQIINK-NH2
T1 peptide: Ac-VQIINK-NH2

B1: RRIRIRW (peptide)
peptide: RRIRIRW
B2: ERIWIRYW (peptide)
peptide: ERIWIRYW
B3: WIRLYWRW (peptide)
peptide: WIRLYWRW
B4: WRIRLRW (peptide)
peptide: WRIRLRW
B5: WYRIWIRW (peptide)
peptide: WYRIWIRW
B6: IRLWVW (peptide)
peptide: IRLWVW
B7: RIRLWIW (peptide)
peptide: RIRLWIW
B8: WYRLRIRW (peptide)
peptide: WYRLRIRW
B9: IWIRYW (peptide)
peptide: IWIRYW
B10: IRIWIW (peptide)
peptide: IRIWIW
B11: RIWIRVW (peptide)
peptide: RIWIRVW
B12: RIRIWVW (peptide)
peptide: RIRIWVW
B13: WRARIRW (peptide)
peptide: WRARIRW
B14: RIWLWYR (peptide)
peptide: RIWLWYR
B15: FRIWIRYF (peptide)
peptide: FRIWIRYF
B16: WRIWIR (peptide)
peptide: WRIWIR
B17: WRIHIRYW (peptide)
peptide: WRIHIRYW
B18: LRIWIRYL (peptide)
peptide: LRIWIRYL
B19: ARIWIRYW (peptide)
peptide: ARIWIRYW
B20: RWWIRIRYW (peptide)
peptide: RWWIRIRYW
B21: WRIRIAW (peptide)
peptide: WRIRIAW
B22: RIRVWIF (peptide)
peptide: RIRVWIF
B23: FRIRIHHW (peptide)
peptide: FRIRIHHW
B24: RIALYWW (peptide)
peptide: RIALYWW
B25: WRIRIWYW (peptide)
peptide: WRIRIWYW
B26: WRIRIRW (peptide)
peptide: WRIRIRW
B27: WRIRLYWR (peptide)
peptide: WRIRLYWR
B28: WRIRIRH (peptide)
peptide: WRIRIRH
B29: W(hR)I(hR)L(hR)W (peptide)
peptide: W[hArg]I[hArg]L[hArg]W
B30: RIHIFFW (peptide)
peptide: RIHIFFW

How the values were obtained:
His-Tau40P301L Tau = His-Tau40P301L Tau (UniProt P10636-8 1-441); assay: cell-based or functional assay
His-Tau40P301L Tau, sequence (P10636 other isoform, or with tags, fused parts or gaps limits assumed): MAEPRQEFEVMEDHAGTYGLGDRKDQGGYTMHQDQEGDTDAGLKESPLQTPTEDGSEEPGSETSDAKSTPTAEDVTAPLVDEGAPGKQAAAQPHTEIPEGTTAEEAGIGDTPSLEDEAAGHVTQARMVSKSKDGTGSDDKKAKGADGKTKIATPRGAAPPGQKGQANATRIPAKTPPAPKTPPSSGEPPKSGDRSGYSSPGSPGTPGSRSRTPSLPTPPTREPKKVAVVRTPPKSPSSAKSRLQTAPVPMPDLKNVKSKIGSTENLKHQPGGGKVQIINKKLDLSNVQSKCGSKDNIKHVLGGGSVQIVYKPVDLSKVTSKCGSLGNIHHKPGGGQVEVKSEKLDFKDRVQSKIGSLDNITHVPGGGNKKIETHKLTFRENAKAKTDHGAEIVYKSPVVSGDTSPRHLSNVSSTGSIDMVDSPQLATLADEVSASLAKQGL

Ac-VQIINK-NH2 = molecular target: T1, Ac-VQIINK-NH2; assay: cell-based or functional assay

Row | Binder | IC50 (µM), Tau40 assay (ThT) (His-Tau40P301L Tau) | IC50 (µM), VQIINK Inhibition (ThT) (Ac-VQIINK-NH2)
1 | B1 | 2.88 µM | 4.29 µM
2 | B2 | 5.33 µM | 6.19 µM
3 | B3 | 2.42 µM and 2.38 µM | 1.86 µM
4 | B4 | 0.9 µM and 0.97 µM | 4.04 µM
5 | B5 | 0.96 µM and 1 µM and 1.73 µM | 2.02 µM and 3.69 µM
6 | B6 | 8.77 µM | 1.63 µM
7 | B7 | 7.07 µM | 4.63 µM
8 | B8 | 0.86 µM and 0.97 µM | 2.36 µM
9 | B9 | 4.05 µM | 5.43 µM
10 | B10 | 6.77 µM | 2.94 µM
11 | B11 | 6.36 µM | 2.14 µM
12 | B12 | 7.07 µM | 2.3 µM
13 | B13 | 3.7 µM | 5.77 µM
14 | B14 | 2.73 µM | 4.27 µM and 5.47 µM
15 | B15 | 4 µM | 4.64 µM
16 | B16 | 7.22 µM | 11.8 µM
17 | B17 | 3.76 µM | 3.17 µM
18 | B18 | 2.66 µM | 1.74 µM
19 | B19 | 4.08 µM | 3.14 µM
20 | B20 | 2.54 µM | 2.76 µM
21 | B21 | 4.72 µM | 6 µM
22 | B22 | 6.53 µM and 6.89 µM | 2.8 µM
23 | B23 | 3.2 µM | 1.08 µM
24 | B24 | 3.54 µM | 2.39 µM
25 | B25 | 0.85 µM | 2.43 µM
26 | B26 | 0.9 µM and 0.84 µM | 2.96 µM
27 | B27 | 3.1 µM | 2.12 µM
28 | B28 | 4.44 µM | 11.6 µM
29 | B29 | 3.39 µM | 2.52 µM
30 | B30 | 4.4 µM | 1.95 µM
